Measurements as given in PMC6411926, “Engagement of DNA and H3K27me3 by the CBX8 chromodomain drives chromatin association” (Nucleic Acids Research, 2018).
Ends that are not written are not given here. trimethyl = trimethyl-lysine

Key:
[1] = molecular target: histone H3K27me3 peptide (Homo sapiens) (UniProt P68431); conditions: cited from earlier work
[2] = molecular target: T1, CBX8 chromodomain (residues 8-61) (UniProt Q9HC52 8-61); test: NMR titration; 1H-15N HSQC; histone peptide added to 15N-CD pre-bound to an 11 bp DNA (CD:DNA 1:1); conditions: both partners purified
T1 construct: CBX8 chromodomain, residues 8-61; Uniformly 15N-labelled for the NMR titrations; The methods name two chromodomain constructs (Addgene 62514 and GST-CBX8 8-61 in pGSTag); the purification that is described is that of the GST fusion cleaved with TEV; also called CD; CBX8 CD; source: E. coli BL21 (DE3), purified (glutathione agarose, TEV cleavage, cation exchange, Superdex 75)
T1 sequence (looked up): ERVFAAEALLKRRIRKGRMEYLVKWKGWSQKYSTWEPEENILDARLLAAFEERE

[3] = molecular target: T1, CBX8 chromodomain (residues 8-61); test: NMR titration; 1H-15N HSQC of 0.05-0.10 mM 15N-CBX8 CD with increasing molar ratios of unlabelled histone peptide; 25 °C; 100 mM NaCl, 40 mM phosphate pH 6.8; CSPs fit to a single-site model with ligand depletion, global Kd as the average over perturbed resonances; conditions: both partners purified
CBX8 chromodomain (CD) = molecular target: T2, CBX8 chromodomain (CD) (UniProt Q9HC52 8-61); test: NMR titration (1H-15N HSQC); authors' estimate (likely); saturation at ~1:1, curved CSPs; EMSA: 25 mM phosphate pH 6.8, 25 mM NaCl, 1 mM EDTA, 1 mM DTT, 15 min on ice, 6% gel in 0.4x TBE; NMR: 40 mM phosphate pH 6.8, 100 mM NaCl, 25 C; conditions: protein: recombinant; tags: GST removed by TEV; 15N-labelled for NMR; blunt
T2 sequence: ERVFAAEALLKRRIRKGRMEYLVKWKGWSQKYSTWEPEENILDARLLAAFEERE

Molecule: CBX8 chromodomain (from UniProt Q9HC52)
- Kd [1]: > 500 µM

Molecule: KAARK(trimethyl)SAPATGG [H3K27me3 (23-34) histone peptide]
- Kd [2]: 200 µM
- Kd [3]: 700 µM

B1: 11 bp DNA (dsDNA)
DNA 1: GCGTTTAAGCG
DNA 2: CGCTTAAACGC
- Kd (CBX8 chromodomain (CD)): < 10 µM
